Reference: patent US20230233512A1 (UNIVERSITY OF SOUTH CAROLINA, published 2023)
Changes are numbered by the printed parent chain. In names and notes the source's numbering stands.

T1: PACT C77S (recessive DYT16 mutant), O75569
T1 chain: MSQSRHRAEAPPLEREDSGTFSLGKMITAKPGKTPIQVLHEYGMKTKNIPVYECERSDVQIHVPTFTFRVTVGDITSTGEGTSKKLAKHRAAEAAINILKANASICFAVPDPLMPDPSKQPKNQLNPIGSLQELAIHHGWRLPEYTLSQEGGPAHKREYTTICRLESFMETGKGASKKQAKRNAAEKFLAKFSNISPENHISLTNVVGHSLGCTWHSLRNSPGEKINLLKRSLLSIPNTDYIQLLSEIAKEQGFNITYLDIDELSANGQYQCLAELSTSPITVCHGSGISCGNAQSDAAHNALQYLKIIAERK

T2: wild type (wt) PACT, O75569
T2 chain: T1 chain with S77C

T3: PACT T34S (dominant DYT16 mutant), O75569
T3 chain: T1 chain with T34S, S77C

T4: PACT P222L (recessive DYT16 mutant), O75569
T4 chain: T1 chain with S77C, P222L

T5: PACT C213F (recessive DYT16 mutant), O75569
T5 chain: T1 chain with S77C, C213F

T6: PACT N102S (dominant DYT16 mutant), O75569
T6 chain: T1 chain with S77C, N102S

T7: PACT C213R (recessive DYT16 mutant), O75569
T7 chain: T1 chain with S77C, C213R

B1: PKR (protein)
chain: MAGDLSAGFFMEELNTYRQKQGVVLKYQELPNSGPPHDRRFTFQVIIDGREFPEGEGRSKKEAKNAAAKLAVEILNKEKKAVSPLLLTTTNSSEGLSMGNYIGLINRIAQKKRLTVNYEQCASGVHGPEGFHYKCKMGQKEYSIGTGSTKQEAKQLAAKLAYLQILSEETSVKSDYLSSGSFATTCESQSNSLVTSTLASESSSEGDFSADTSEINSNSDSLNSSSLLMNGLRNNQRKAKRSLAPRFDLPDMKETKYTVDKRFGMDFKEIELIGSGGFGQVFKAKHRIDGKTYVIKRVKYNNEKAEREVKALAKLDHVNIVHYNGCWDGFDYDPETSDDSLESSDYDPENSKNSSRSKTKCLFIQMEFCDKGTLEQWIEKRRGEKLDKVLALELFEQITKGVDYIHSKKLIHRDLKPSNIFLVDTKQVKIGDFGLVTSLKNDGKRTRSKGTLRYMSPEQISSQDYGKEVDLYALGLILAELLHVCDTAFETSKFFTDLRDGIISDIFDKKEKTLLQKLLSKKPEDRPNTSEILRTLTVWKKSPEKNERHTC
B2: wild type (wt) PACT (other, UniProt O75569 1-313, looked up)
chain: T1 chain with S77C
notes: also called Myc-PACT; flag-PACT
B3: PACT C77S (recessive DYT16 mutant) (other, UniProt O75569 1-313, looked up)
chain: T1 chain
notes: N-terminal Myc or FLAG tag in co-IP; GAL4-DBD or VP16-AD fusion in mammalian two-hybrid; histidine tag in PKR activity assay
B4: PACT C213F (recessive DYT16 mutant) (other, UniProt O75569 1-313, looked up)
chain: T1 chain with S77C, C213F
notes: as for B3
B5: PACT C213R (recessive DYT16 mutant) (other, UniProt O75569 1-313, looked up)
chain: T1 chain with S77C, C213R
notes: as for B3

Tests used:
[1] = molecular target: T1, PACT C77S (recessive DYT16 mutant), …
[2] = molecular target: T2, wild type (wt) PACT, O75569
[3] = molecular target: T3, PACT T34S (dominant DYT16 mutant), …
[4] = molecular target: T4, PACT P222L (recessive DYT16 mutant), …
[5] = molecular target: T5, PACT C213F (recessive DYT16 mutant), …
[6] = molecular target: T6, PACT N102S (dominant DYT16 mutant), …
[7] = molecular target: T7, PACT C213R (recessive DYT16 mutant), …
[8] = molecular target: T8, flag-tagged dominant negative PKR mutant, K296R (UniProt P19525 1-551); test: co-IP in HeLa cells: Myc-PACT on Myc-agarose, flag-PKR K296R detected by anti-flag blot
T8 construct: Used in the co-IP assays in HeLa cells; also called flag-PKR; flag-tagged K296R
Protocol: (§1) In all cases HeLa M cells were seeded at 20% confluency in 6-well dishes 24 hours prior to co-transfecting 250 ng of each flag- and/or Myc-tagged constructs using Effectene® reagent (Qiagen). Cells were harvested 24 hours post transfection and harvested in IP buffer. Whole cell extract was then immunoprecipitated overnight at 4° C. on a rotating wheel with either flag-agarose (Sigma) or Myc-agarose beads (Thermo Scientific). Immunoprecipitates were then washed 3-5 times in IP buffer followed by resuspension and boiling for 5 minutes in 1×Laemmle buffer. Samples were then resolved on 10% SDS-PAGE denaturing gels and transferred to PVDF membranes. […] The cell lysates were immunoprecipitated in 15 μL of Myc-agarose beads and resolved on 10% SDS-PAGE denaturing gels and transferred to PVDF membranes.
The immunoprecipitates were analyzed by western blot analysis with anti-flag (FIG. 4A) or anti-Myc (FIG. 4B) antibodies (co-IP panel) and with anti-Myc (FIG. 4A) or anti-flag (B) for IP panels.

[9] = molecular target: B4; test: co-IP in HeLa cells: flag-PACT on flag-agarose, Myc-PACT detected by anti-Myc blot
Protocol: as §1

[10] = molecular target: B3; test: mammalian two-hybrid, luciferase reporter; PACT proteins as GAL4-DBD bait and VP16-AD prey

**Q.** For B1, which “PKR autophosphorylation, in vitro PKR kinase activity assay” value (“PKR autophosphorylation” below) [1] is on record?
**A.** The value was “In all cases, recessive mutations demonstrated a slightly increased capacity to activate PKR ... as compared to wt PACT”.

**Q.** And the “PKR autophosphorylation” value [2]?
**A.** Its value is “When the purified recombinant PACT proteins were added, a dose dependent increase (left: 400 µg, right: 4.0 ng) in activated autophosphorylated PKR was observed”.

**Q.** What about the “PKR autophosphorylation” value [3] of the same binder?
**A.** Its value is “The dominant mutants (lower panel) also showed enhanced ability to activate PKR at 400 µg”.

**Q.** What about the “PKR autophosphorylation” value [4] of the same binder?
**A.** Its value is “In all cases, recessive mutations demonstrated a slightly increased capacity to activate PKR ... as compared to wt PACT”.

**Q.** What about the “PKR autophosphorylation” value [5] of the same binder?
**A.** Its value is “In all cases, recessive mutations demonstrated a slightly increased capacity to activate PKR ... as compared to wt PACT”.

**Q.** What about the “PKR autophosphorylation” value [6] of the same binder?
**A.** Its value is “The dominant mutants (lower panel) also showed enhanced ability to activate PKR at 400 µg”.

**Q.** What about the “PKR autophosphorylation” value [7] of the same binder?
**A.** The value was “In all cases, recessive mutations demonstrated a slightly increased capacity to activate PKR ... as compared to wt PACT”.

**Q.** Does B2 bind [8]?
**A.** Result: binds

**Q.** Which results are given for B3?
**A.** binding result [9]: binds; binding result [8]: binds

**Q.** Does B4 bind [8]?
**A.** Result: binds

**Q.** And the “fold higher interaction than wt PACT-wt PACT” value [10]?
**A.** The value was ~9 fold.

**Q.** Does B5 bind [8]?
**A.** Result: binds
